Measurements published in article PMC9065009, “Mechanistic insights of ABC importer HutCD involved in heme internalization by Vibrio cholerae” (Scientific Reports, 2022).

How the values were obtained:
HutD [1] = assay: cross-linking
HutD [2] = assay: SEC; Superdex 200 Increase 10/300 GL; 250 uM HutD preincubated 1.5 h at 4 °C with 500 uM AMP.PNP; 500 ul injected; 50 mM Tris-HCl pH 8.0, 300 mM NaCl, 5 mM MgCl2; 0.5 ml/min; calibrated with molecular weight standards
HutD [3] = target: T1, HutD (Vibrio cholerae, UniProt Q9KL34); assay: biochemical
T1 construct: gene hmuV
T1 sequence (Q9KL34 whole entry, looked up): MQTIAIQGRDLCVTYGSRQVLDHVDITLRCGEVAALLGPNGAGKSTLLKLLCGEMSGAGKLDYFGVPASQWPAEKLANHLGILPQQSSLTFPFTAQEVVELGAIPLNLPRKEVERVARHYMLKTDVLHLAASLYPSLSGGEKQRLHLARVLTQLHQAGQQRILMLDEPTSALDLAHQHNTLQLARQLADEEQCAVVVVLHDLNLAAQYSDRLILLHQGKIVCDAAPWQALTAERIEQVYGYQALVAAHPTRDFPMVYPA

HutD (enzyme), sequence (O52047 whole entry): as the sequence (Q9KL34 whole entry, looked up) above

Row | Molecule | stoichiometry N (HutD [1]) | stoichiometry N (HutD [2]) | Kd (HutD [3]) [µM]
1 | HutD (enzyme) | 2 | 2 | 
2 | Nc1ncnc2c1ncn2[C@@H]1O[C@H](COP(=O)(O)OP(=O)(O)NP(=O)(O)O)[C@@H](O)[C@H]1O [AMP.PNP] |  |  | 94 ± 0.024
